Data reported in patent US20240254231A1 (PETMEDIX, published 2024).

T1: canine PD-1 ECD-6His (canine)
T1 construct: also called recombinant canine PD-1-ECD-6His protein; not shown: hexahistidine tag
T1 chain: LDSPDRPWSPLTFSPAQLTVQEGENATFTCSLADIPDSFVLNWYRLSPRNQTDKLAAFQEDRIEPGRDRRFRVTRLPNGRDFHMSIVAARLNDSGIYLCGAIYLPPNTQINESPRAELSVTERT

B1: PMX127 (antibody, V domains shown)
VH: EVQLVESGGDLVKPGGSLRLSCVASGFSFSRYHMSWVRQAPGKGLQWVAYIVSGGISTSYADAVKGRFTISRDNAKNTLFLQMNSLRAEDTAVYYCATYGSYFFDTWGQGTLVTVSS
VL: DIVMTQTPLSLSVSPGETASIFCKASQSLLHSDGKSYLNWFRQKPGQSPQRLIYRVSNRDPGVPDRFSGSGSGTDFTLRISRVEADDTGLYYCGQVIQDPTFGAGTKVELK
notes: Alexa Fluor 647-labelled in some assays; also called PM127
B2: PMX152 (antibody, V domains shown)
VH: EVQLVESGGDLVKPGGSLRLSCVASGFTFSRYYMNWVRQAPGKGPQWVAYINNAGSDRNYVDAVKGRFTISRDNAKNTLYLQMNSLRAEDTAVYYCASEIRGVVVVGHLDYWGQGTLVTVSS
VL: SYVLTQLPSKSVTLNQPAHITCGGDNIGSKSVHWYQQKLGQAPVLIIYYDSIRPTGIPERFSGATSGNTATLTISGALAEDEADYYCQVWDSSAKAWVFGEGTQLTVL
notes: also called PM152
B3: PMX126 (antibody, V domains shown)
VH: EVQLVESGGDLVKPAGSLRLSCLASGFTFSSYSMSWVRQAPEKGLQSVAGINSDGDRTYYTDAVKGRFTISRDNAKSTVYLQMNSLRAEDTAMYYCVRGFSSFNAFGYWGQGTLVTVSS
VL: DIVMTQTPLSLSVSPGETASISCKASQSLLHSDGNTYLSWFRQKPGQSPHRLIYAVSHRHPGVPDRFSGSGSGTDFTLRISRVEADDAGLYYCGQVIQDPWTFGAGTKVELK
notes: Alexa Fluor 647-labelled in some assays

Columns and labels:
[1] = target: T2, recombinant human PD-1 ECD-6His protein (Bio-Techne, item BP164049-1 mg) (human, UniProt Q15116 25-170); assay: SPR, mAb captured on protein A chip, PD-1 protein injected
T2 construct: extracellular domain; Bought protein; also called human PD-1-ED-6His; recombinant human PD-1 protein; not shown: hexahistidine tag

canine PD-1 ECD-6His = target: T1, canine PD-1 ECD-6His; assay: SPR multi-cycle kinetics, mAb captured on protein A chip, monomeric PD-1 ECD-6His analyte
Method: SPR-based monomeric affinity assays were conducted as multi-cycle kinetic experiments. Around 100 RU of purified monoclonal antibody was captured on Fc2 of a series S protein A chip (Cytiva). […] At the end of each cycle, the chip surface was regenerated with a 120 s pulse of 10 mM Glycine pH 1.9 at 30 μL/min. The data were analysed using Biacore Insight package (Cytiva) by fitting to a global 1:1 binding model with kinetic analysis.

T2 sequence (Q15116 25-170): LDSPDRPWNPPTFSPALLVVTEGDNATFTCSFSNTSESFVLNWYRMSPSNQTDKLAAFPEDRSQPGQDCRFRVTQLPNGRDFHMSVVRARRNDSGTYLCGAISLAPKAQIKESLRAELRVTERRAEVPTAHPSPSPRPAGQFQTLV

Binder | binding result [1] | binding result (canine PD-1 ECD-6His)
B1 | no binding (tested: 900 nM) | –
B2 | – | binds
B3 | no binding (tested: 900 nM) | –
